Test results taken from the supplement of paper PMC7877785.
± gives the uncertainty stated by the source.

Assay: self-splicing fitness, log relative to wild type (ln ratio); higher = more splicing; Tetrahymena group I intron in knt gene, E. coli kanamycin selection, DiMSum; sequences stand for … in CUCUCU…GGAGGGAAAAGUUAUCAGGCAUGCACCUGGUAGCUAGUCUUUAAACCAAUAGAUUGCAUCGGUUUAAAAGGCAAGACCGUCAAAUUGCGGGAAAGGGGUCAACAGCCGUUCAGUACCAAGUCUCAGGGGAAACUUUGAGAUGGCCUUGCAAAGGGUAUGGUAAUAAGCUGACGGACAUGGUCCUAACCACGCAGCCAAGUCCUAAGUCAACAGAUCUUCUGUUGAUAUGGAUGCAGUUCACAGACUAAAUGUCGGUCGGGGAAGAUGUAUUCUUCUCAUAAGAUAUAGUCGGACCUCUCCUUAAUGGGAGCUAGCGGAUGAAGUGAUGCAACACUGGAGCCGCUGGGAACUAAUUUGUAUGCGAAAGUAUAUUGAUUAGUUUUGGAGUACUCGUGGUCG
Summary of the method: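 Colonies from six replicate transformations of E. coli BL21(DE3) were pooled and amplicon-sequenced on an Illumina HiSeq 2500. The library placed an intron with all eight P1ex-region nucleotides randomised inside the knt kanamycin-resistance gene on pET-22b(+), and cells grew overnight at 37°C or 30°C on LB agar with or without 25 μg/mL kanamycin (plus 100 μg/mL carbenicillin, 50 μM IPTG, 0.2% rhamnose). Fitness is the DiMSum error-weighted combination of wild-type-normalised replicate fold changes, kanamycin versus none.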

Sequence | self-splicing fitness (ln) (30 °C) | self-splicing fitness (ln) (37 °C)
ACGCAGCAAUAUUACGAGCA | -1.58 ± 0.096 | -1.2 ± 0.11
CAUUAGCAAUAUUACGUCUG | -0.197 ± 0.062 | 0.00612 ± 0.072
UACGAGCAAUAUUACGAACG | -2.96 ± 0.26 | -2.05 ± 0.16
UACCAGCAAUAUUACGAGUA | -1.25 ± 0.085 | -1.69 ± 0.08
AUAAAGCAAUAUUACGCCCA | 0.167 ± 0.18 | -0.307 ± 0.23
UGCAAGCAAUAUUACGAGCC | -1.39 ± 0.11 | -1.52 ± 0.14
AAAGAGCAAUAUUACGUAGC | -4.35 ± 0.27 | -2.45 ± 0.24
AAUCAGCAAUAUUACGUAGC | -1.93 ± 0.093 | -0.229 ± 0.12
CGGCAGCAAUAUUACGUGUG | -1.09 ± 0.036 | -0.654 ± 0.05
CAAGAGCAAUAUUACGCGAG | -2.92 ± 0.2 | -2.11 ± 0.21
CAUAAGCAAUAUUACGUCGU | -4.23 ± 0.34 | -1.64 ± 0.12
UCGAAGCAAUAUUACGUGUG | -1.43 ± 0.061 | -0.757 ± 0.073
CAUCAGCAAUAUUACGAGUA | -2.12 ± 0.12 | -1.47 ± 0.095
GAGUAGCAAUAUUACGACAC | -0.768 ± 0.18 | -0.953 ± 0.27
UCCCAGCAAUAUUACGGGAU | -3.59 ± 0.14 | -3.46 ± 0.21
UCUAAGCAAUAUUACGGAUC | -3.37 ± 0.37 | -3.24 ± 0.37
AAGGAGCAAUAUUACGUUAU | -2.99 ± 0.2 | -1.59 ± 0.22
UAAAAGCAAUAUUACGCUGC | -2.51 ± 0.18 | -1.35 ± 0.26
AUUAAGCAAUAUUACGCGCU | -0.542 ± 0.11 | -0.561 ± 0.15
UGGUAGCAAUAUUACGAUAG | -1.94 ± 0.2 | -0.14 ± 0.14
AAAUAGCAAUAUUACGGCGA | -0.48 ± 0.11 | -0.0146 ± 0.12
CCACAGCAAUAUUACGGCCU | -3.94 ± 0.24 | -3.38 ± 0.31
CGGUAGCAAUAUUACGUAUA | -3.71 ± 0.24 | -2.53 ± 0.18
ACACAGCAAUAUUACGCGAG | -1.74 ± 0.053 | -0.504 ± 0.061

Sequence | self-splicing fitness (ln) (30 °C) | self-splicing fitness (ln) (37 °C)
CAAAAGCAAUAUUACGGACU | -2.38 ± 0.12 | -1.46 ± 0.12
GCGCAGCAAUAUUACGGCCU | -0.201 ± 0.061 | 0.128 ± 0.072
AGCUAGCAAUAUUACGAAGG | -4.22 ± 0.39 | -1.82 ± 0.26
GAAUAGCAAUAUUACGAGUA | -2.44 ± 0.17 | -1.98 ± 0.17
CACCAGCAAUAUUACGUGAU | -3.47 ± 0.12 | -3 ± 0.19
GGUUAGCAAUAUUACGUAGU | -1.03 ± 0.097 | -0.417 ± 0.12
CUUUAGCAAUAUUACGCGCA | -2.5 ± 0.31 | -1.77 ± 0.42
GUAAAGCAAUAUUACGUUGU | -3.6 ± 0.17 | -2.13 ± 0.19
GCGAAGCAAUAUUACGCCUA | -3.1 ± 0.45 | -2.39 ± 0.34
AGAUAGCAAUAUUACGAACG | -1.12 ± 0.12 | -0.323 ± 0.13
CCAAAGCAAUAUUACGAGCU | -3.38 ± 0.22 | -2.14 ± 0.22
CAGGAGCAAUAUUACGAAUU | -3.43 ± 0.35 | -2.43 ± 0.3
ACGUAGCAAUAUUACGGUUU | -2.03 ± 0.096 | -0.957 ± 0.11
GGGGAGCAAUAUUACGGAGU | -1.01 ± 0.41 | 
CUUGAGCAAUAUUACGUAGG | -1.79 ± 0.15 | -0.65 ± 0.15
AGGGAGCAAUAUUACGCUUU | -2.49 ± 0.45 | -2.48 ± 0.5
AAAUAGCAAUAUUACGAGCA | -1.4 ± 0.11 | -0.127 ± 0.11
UGCUAGCAAUAUUACGGUUU | -1.27 ± 0.062 | -0.216 ± 0.073
GUAGAGCAAUAUUACGAGUA | -3.5 ± 0.28 | -1.69 ± 0.29
UCUCAGCAAUAUUACGUCAA | -3.21 ± 0.27 | -2.35 ± 0.21
CAGAAGCAAUAUUACGAUGA | -2.08 ± 0.12 | -0.735 ± 0.086
UACCAGCAAUAUUACGAUGG | -3.01 ± 0.11 | -1.25 ± 0.091
GUGAAGCAAUAUUACGCAUU | -2.66 ± 0.27 | -1.05 ± 0.15
CUCGAGCAAUAUUACGGUAG | -2.62 ± 0.16 | -0.386 ± 0.12

Sequence | self-splicing fitness (ln) (30 °C) | self-splicing fitness (ln) (37 °C)
AUCCAGCAAUAUUACGGCUC | -1.39 ± 0.078 | -0.482 ± 0.099
GGAAAGCAAUAUUACGGGUC | -3.66 ± 0.24 | -1.92 ± 0.14
CGGCAGCAAUAUUACGUAUA | -3.35 ± 0.27 | -2.8 ± 0.23
CAUAAGCAAUAUUACGGAAC |  | -2.26 ± 0.22
GGACAGCAAUAUUACGGCGU | -0.74 ± 0.097 | -0.627 ± 0.11
GAGCAGCAAUAUUACGGACA | -2.64 ± 0.15 | -1.53 ± 0.12
AUGAAGCAAUAUUACGAGAC | -2.73 ± 0.43 | -1.28 ± 0.47
UUCAAGCAAUAUUACGCAAA | -1.96 ± 0.16 | -0.991 ± 0.15
AGGUAGCAAUAUUACGGAUC | -1.721 ± 0.017 | -0.787 ± 0.034
AUGCAGCAAUAUUACGUCUU | 0.0107 ± 0.076 | 0.303 ± 0.082
UUGCAGCAAUAUUACGCCGA | -0.318 ± 0.11 | -0.371 ± 0.12
UCCAAGCAAUAUUACGGAUG | -3.77 ± 0.13 | -3.2 ± 0.25
GUCCAGCAAUAUUACGCAUG | -2.14 ± 0.079 | -1.66 ± 0.082
GCCAAGCAAUAUUACGGACU | -1.16 ± 0.077 | -0.389 ± 0.1
GCAAAGCAAUAUUACGGACA | -0.517 ± 0.18 | -0.839 ± 0.14
UGACAGCAAUAUUACGCAAU | -2.38 ± 0.12 | -1.84 ± 0.16
UGCUAGCAAUAUUACGGCGC | -3.41 ± 0.37 | 1.38 ± 0.48
CCAUAGCAAUAUUACGAUAG | -0.989 ± 0.06 | -0.387 ± 0.076
CGCUAGCAAUAUUACGUGAA | -3.59 ± 0.16 | -2.34 ± 0.087
GGUGAGCAAUAUUACGUACU | -1.89 ± 0.14 | -1.75 ± 0.17
UUAAAGCAAUAUUACGGAUA | -0.925 ± 0.13 | -0.197 ± 0.16
AUUUAGCAAUAUUACGAUGC | -1.98 ± 0.23 | -0.497 ± 0.21
CGGCAGCAAUAUUACGAAGA | -2.55 ± 0.17 | -1.25 ± 0.18
UUUCAGCAAUAUUACGCUAU | -2.73 ± 0.17 | -1.81 ± 0.14

Sequence | self-splicing fitness (ln) (30 °C) | self-splicing fitness (ln) (37 °C)
GACUAGCAAUAUUACGUAUU | -1.11 ± 0.072 | -0.646 ± 0.079
CCACAGCAAUAUUACGCCAU | -3.59 ± 0.2 | -1.36 ± 0.21
CCAGAGCAAUAUUACGUAUC | -2.62 ± 0.17 | -1.73 ± 0.25
UGGCAGCAAUAUUACGCCGG | -1.64 ± 0.14 | -0.838 ± 0.2
GCUUAGCAAUAUUACGGCGC | -0.263 ± 0.14 | 0.127 ± 0.16
AUAUAGCAAUAUUACGCUAC | -2.34 ± 0.33 | 
GCUGAGCAAUAUUACGGUGA | -1.35 ± 0.17 | -0.217 ± 0.17
GUUUAGCAAUAUUACGAGGA | -2.48 ± 0.44 | -1.79 ± 0.37
CCCCAGCAAUAUUACGAAUA |  | -1.41 ± 0.21
CACAAGCAAUAUUACGGGGU | -3.61 ± 0.11 | -3.18 ± 0.13
AUUCAGCAAUAUUACGACUA | -0.646 ± 0.12 | -0.106 ± 0.12
GAAGAGCAAUAUUACGUAGC | -2.27 ± 0.21 | -2.31 ± 0.21
CCUAAGCAAUAUUACGCCAG | -2.8 ± 0.26 | -2.13 ± 0.29
GGCGAGCAAUAUUACGUCGU | -3.86 ± 0.22 | -2.3 ± 0.32
UUACAGCAAUAUUACGUACU | -0.865 ± 0.1 | -0.831 ± 0.096
ACAAAGCAAUAUUACGUCCC | -0.873 ± 0.23 | -1.78 ± 0.25
AUCAAGCAAUAUUACGAUAA | -1.99 ± 0.11 | -0.292 ± 0.092
CGGAAGCAAUAUUACGACUA | -0.269 ± 0.1 | 0.239 ± 0.1
CUACAGCAAUAUUACGCUGG | -3.11 ± 0.097 | -2.66 ± 0.15
CCCGAGCAAUAUUACGUACG | -3.24 ± 0.18 | -2.83 ± 0.24
ACAGAGCAAUAUUACGGCGU | -1.24 ± 0.12 | -0.0954 ± 0.11
GGGUAGCAAUAUUACGGUAU | -2.11 ± 0.13 | -0.598 ± 0.14
GUGCAGCAAUAUUACGAUGC | -0.245 ± 0.11 | 0.208 ± 0.17
UGACAGCAAUAUUACGCGCG | -1.15 ± 0.1 | -0.132 ± 0.11
